Assay results taken from US9382305B2, “Relaxin fusion polypeptides and uses thereof” (BAYER INTELLECTUAL PROPERTY GMBH, priority 2011, dated 2016).
Like-named read-outs stand apart in the source and are kept apart here. Ends that are not written are not given here.

T1: human LGR7/RXFP1 receptor (Homo sapiens, UniProt Q9HBX9)
T1 construct: cloned as 2271 base pair long DNA fragment; expressed in transfected cells; host or cells: CHO K1 (ATCC CCL-61) with CRE-luciferase reporter; receptor in pcDNA3.1(-)
T1 sequence (Q9HBX9 1-757): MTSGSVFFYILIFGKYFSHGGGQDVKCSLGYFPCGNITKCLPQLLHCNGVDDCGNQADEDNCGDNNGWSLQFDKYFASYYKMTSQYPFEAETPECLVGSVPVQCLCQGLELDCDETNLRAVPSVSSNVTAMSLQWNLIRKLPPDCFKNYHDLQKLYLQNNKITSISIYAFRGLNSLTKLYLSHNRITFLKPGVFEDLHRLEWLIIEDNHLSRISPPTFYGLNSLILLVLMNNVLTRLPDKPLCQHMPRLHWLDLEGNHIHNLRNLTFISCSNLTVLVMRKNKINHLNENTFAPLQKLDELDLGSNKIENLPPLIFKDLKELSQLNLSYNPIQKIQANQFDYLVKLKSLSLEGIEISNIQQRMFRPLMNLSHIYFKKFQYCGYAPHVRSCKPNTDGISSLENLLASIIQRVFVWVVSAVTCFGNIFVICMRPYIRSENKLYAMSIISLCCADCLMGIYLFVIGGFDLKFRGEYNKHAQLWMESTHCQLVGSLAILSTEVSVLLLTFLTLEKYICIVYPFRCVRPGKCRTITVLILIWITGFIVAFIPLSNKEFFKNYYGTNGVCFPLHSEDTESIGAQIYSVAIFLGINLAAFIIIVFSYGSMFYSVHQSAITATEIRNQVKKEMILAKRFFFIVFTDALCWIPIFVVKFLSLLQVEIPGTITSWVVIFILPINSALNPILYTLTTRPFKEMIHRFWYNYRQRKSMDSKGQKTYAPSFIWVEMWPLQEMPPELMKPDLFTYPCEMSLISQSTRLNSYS


Target: T1, human LGR7/RXFP1 receptor
Assay: Activity testing: CRE-luciferase reporter in CHO-CRE-LGR7 cell line
Type: cell-based
Conditions: for EC50 (M): luciferase after 6 hours, examples of three to five independent experiments
Procedure: For stimulation, medium was exchanged by OptiMem (Gibco, #11058)+1% FCS containing different concentrations of the recombinantly expressed Relaxin variant proteins (usually starting at a concentration of 100 nM, followed by 1:2 dilutions). As positive control, commercially available recombinant expressed human Relaxin 2 (Genbank Accession number NP_604390.1) was used (R&D Systems, catalogue number 6586-RN-025). Subsequently, cells were incubated for 6 hours in a humified incubator at 5% carbon dioxide at 37° C. After 6 hours cells were tested for Luciferase activity using a Luciferase Assay System (Promega, # E1500) and using the Tecan Infinite 500 reader, luminescence mode, 1000 milliseconds integration time, measurement time 30 seconds.

[1] = Table 2, scR fusion protein constructs

Molecule | biological activity (activation of LGR7), in words | EC50 (M) (Table 1, scR constructs) | also measured
Relaxin Fc: human Relaxin 2 (B chain-C chain-A chain) fused via IleGluGlyArgMetAsp to N terminal end of human IgG1 Fc | no activity |  | EC50 (M) [1]: not detectable; biological activity (activation of LGR7), in words (listed as human wildtype Relaxin 2 molecule with its orientation B chain-C chain-A chain f): does not show any detectable activity
scR14: single chain human Relaxin 3 A-L-B, linker GlyGlyGlySerGlyGlyGlySerGly; non-purified; SEQ ID NO: 14 (DVLAGLSSSCCKWGCSKSEISSLCGGGSGGGSGRAAPYGVRLCGREFIRAVIFTCGGSRW; ends and bridges not checked; cysteine pairing not given here) | detectable biological activity |  | 
scR-Var7: single chain human Relaxin 2, linker LysArgSerLeuSerArgLysLysArg; B chain C terminus linked via IleGluGlyArgMetAsp to human IgG1 Fc; SEQ ID NO: 40 |  |  | EC50 (M) [1]: active (EC50 n.d.)
scR-Var8: human IgG1 Fc linked via IleGluGlyArgMetAsp to A chain N terminus; A-B linker LysArgSerLeuSerArgLysLysArg; SEQ ID NO: 41 |  |  | EC50 (M) [1]: active (EC50 n.d.)
scR2: single chain human Relaxin 2 A-L-B, linker GlyGlyGlySerGly; Myc, hemagglutinin and 6 Histidine tags; SEQ ID NO: 2 (protein) EQKLISEEDLQLYSALANKCCHVGCTKRSLARFCGGGSGSWMEEVIKLCGRELVRAQIAICGMSTWSYPYDVPDYAHHHHHH |  | not detectable | 
scR-Fc 18: C terminal end of scR4 linked via 21 amino acid linker SEQ ID NO: 174 to human IgG1 Fc; SEQ ID NO: 33 (protein, relaxin fusion polypeptide) QLYSALANKCCHVGCTKRSLARFCGGGSGGGSGSWMEEVIKLCGRELVRAQIAICGMSTWSGGGSGGGSGTLVTVSSESKYGPPCPPCPAPEAAAPELLGGPSVFLFPPKPKDTLMISRTPEVTCVVVDVSHEDPEVKFNWYVDGVEVHNAKTKPREEQYNSTYRVVSVLTVLHQDWLNGKEYKCKVSNKALPAPIEKTISKAKGQPREPQVYTLPPSRDELTKNQVSLTCLVKGFYPSDIAVEWESNGQPENNYKTTPPVLDSDGSFFLYSKLTVDKSRWQQGNVFSCSVMHEALHNHYTQKSLSLSPGK |  |  | EC50 (M) [1]: active (EC50 n.d.)
scR18: B chain of human Relaxin 2-linker SEQ ID NO: 139-A chain of human Relaxin 3; Myc tag; SEQ ID NO: 154 (protein, relaxin fusion polypeptide) EQKLISEEDLSWMEEVIKLCGRELVRAQIAICGMSTWSGGGSGGGSGDVLAGLSSSCCKWGCSKSEISSLC |  | not detectable | 
scR13: single chain human Relaxin 2 A-L-B, linker LysArgSerLeuSerArgLysLysArg; non-purified; SEQ ID NO: 13 (protein, ends and bridges not checked) QLYSALANKCCHVGCTKRSLARFCKRSLSRKKRSWMEEVIKLCGRELVRAQIAICGMSTWS | lower activity | active (EC50 n.d.) | 
scR17: A chain of human Relaxin 3-linker SEQ ID NO: 139-B chain of human Relaxin 2; Myc tag; SEQ ID NO: 153 (protein, relaxin fusion polypeptide) EQKLISEEDLDVLAGLSSSCCKWGCSKSEISSLCGGGSGGGSGSWMEEVIKLCGRELVRAQIAICGMSTWS | reduced activity |  | 
scR19: A chain of human Relaxin 2-linker SEQ ID NO: 139-B chain of human Relaxin 3; Myc tag; SEQ ID NO: 155 (protein, ends and bridges not checked) EQKLISEEDLQLYSALANKCCHVGCTKRSLARFCGGGSGGGSGRAAPYGVRLCGREFIRAVIFTCGGSRW | further reduction in the activity | active (EC50 n.d.) | 
scR1: single chain human Relaxin 2 A-L-B, linker GlyGlyGly; Myc, hemagglutinin and 6 Histidine tags; SEQ ID NO: 1 (protein) EQKLISEEDLQLYSALANKCCHVGCTKRSLARFCGGGSWMEEVIKLCGRELVRAQIAICGMSTWSYPYDVPDYAHHHHHH |  | not detectable | 
scR20: B chain of human Relaxin 3-linker SEQ ID NO: 139-A chain of human Relaxin 2; Myc tag; SEQ ID NO: 156 (protein, ends and bridges not checked) EQKLISEEDLRAAPYGVRLCGREFIRAVIFTCGGSRWGGGSGGGSGQLYSALANKCCHVGCTKRSLARFC |  | not detectable | 
scR6: single chain human Relaxin 2 A-L-B, fifteen amino acid linker SEQ ID NO: 173; Myc, hemagglutinin, 6 Histidine tags; SEQ ID NO: 6 (protein) EQKLISEEDLQLYSALANKCCHVGCTKRSLARFCGGGSGGGSGGGSGGGSWMEEVIKLCGRELVRAQIAICGMSTWSYPYDVPDYAHHHHHH |  | not detectable | 
scR15: single chain human Relaxin 3 A-L-B, linker GlyGlyGlySerGlyGlyGlySerGly; Myc tag; SEQ ID NO: 15 (protein, ends and bridges not checked) EQKLISEEDLDVLAGLSSSCCKWGCSKSEISSLCGGGSGGGSGRAAPYGVRLCGREFIRAVIFTCGGSRW | detectable biological activity |  | 
scR16: human Relaxin 2 B chain-linker GlyGlyGlySerGlyGlyGlySerGly-A chain; Myc tag; SEQ ID NO: 152 (protein) EQKLISEEDLSWMEEVIKLCGRELVRAQIAICGMSTWSGGGSGGGSGQLYSALANKCCHVGCTKRSLARFC |  | not detectable | 
